Patent US6541220 (GENERAL HOSPITAL, dated 2003)
No end group written: not given here.

B1: [Tyr34]hPTH(1-34)amide (peptide)
peptide: SVSEIQLMHNLGKHLNSMERVEWLRKKLQDVHNY-NH2
notes: Synthetic analog of human PTH(1-34) with Tyr at 34
B2: 125I-labeled [Nle8,21,Tyr34]rPTH-(1-34)amide (peptide)
peptide: AVSEIQLXHNLGKHLASVERXQWLRKKLQDVHNY
modifications: Nle at 8 and 21; C-terminal amide; 125I-labeled
notes: Synthetic analog of rat PTH(1-34), used as radioligand

Legend:
[1] = target: T1, zebrafish PTH1R receptor, clone zPTH1R#29 (shorter 5' UT, 149 bp), transiently expressed in COS-7 cells (zebrafish (Danio rerio)); assay: cell-based or functional assay
T1 chain: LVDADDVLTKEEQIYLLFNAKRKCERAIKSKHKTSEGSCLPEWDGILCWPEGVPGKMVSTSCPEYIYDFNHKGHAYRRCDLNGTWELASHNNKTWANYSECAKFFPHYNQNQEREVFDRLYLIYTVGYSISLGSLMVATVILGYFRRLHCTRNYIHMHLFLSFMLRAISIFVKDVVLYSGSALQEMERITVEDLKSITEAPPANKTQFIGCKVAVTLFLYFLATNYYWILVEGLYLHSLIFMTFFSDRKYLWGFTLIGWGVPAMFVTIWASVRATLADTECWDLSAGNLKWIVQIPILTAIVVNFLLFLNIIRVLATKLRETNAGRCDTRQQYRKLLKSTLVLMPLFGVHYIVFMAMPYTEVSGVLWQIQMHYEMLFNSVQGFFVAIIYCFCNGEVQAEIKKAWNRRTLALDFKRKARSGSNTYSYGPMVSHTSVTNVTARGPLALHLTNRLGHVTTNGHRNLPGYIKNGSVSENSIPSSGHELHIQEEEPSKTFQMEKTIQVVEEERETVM

[2] = target: T2, zebrafish PTH1R receptor, clone zPTH1R#25 (longer 5' UT, 391 bp), transiently expressed in COS-7 cells (zebrafish (Danio rerio)); assay: cell-based or functional assay
T2 chain: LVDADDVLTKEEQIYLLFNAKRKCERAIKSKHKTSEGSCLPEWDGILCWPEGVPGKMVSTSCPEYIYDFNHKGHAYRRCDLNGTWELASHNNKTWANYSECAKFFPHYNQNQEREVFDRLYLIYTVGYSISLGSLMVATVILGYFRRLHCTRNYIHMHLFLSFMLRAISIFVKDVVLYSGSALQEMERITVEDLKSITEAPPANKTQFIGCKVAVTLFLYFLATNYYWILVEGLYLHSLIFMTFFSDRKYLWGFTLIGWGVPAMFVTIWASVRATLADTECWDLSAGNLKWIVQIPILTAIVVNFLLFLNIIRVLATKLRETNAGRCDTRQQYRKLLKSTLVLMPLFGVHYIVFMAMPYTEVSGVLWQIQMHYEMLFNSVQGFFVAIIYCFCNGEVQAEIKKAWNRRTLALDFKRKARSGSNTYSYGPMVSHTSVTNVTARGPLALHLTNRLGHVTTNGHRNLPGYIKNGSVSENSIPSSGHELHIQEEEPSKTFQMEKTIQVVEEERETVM

[3] = target: T3, zebrafish PTH3R receptor, transiently expressed in COS-7 cells (zebrafish (Danio rerio)); assay: cell-based or functional assay
T3 chain: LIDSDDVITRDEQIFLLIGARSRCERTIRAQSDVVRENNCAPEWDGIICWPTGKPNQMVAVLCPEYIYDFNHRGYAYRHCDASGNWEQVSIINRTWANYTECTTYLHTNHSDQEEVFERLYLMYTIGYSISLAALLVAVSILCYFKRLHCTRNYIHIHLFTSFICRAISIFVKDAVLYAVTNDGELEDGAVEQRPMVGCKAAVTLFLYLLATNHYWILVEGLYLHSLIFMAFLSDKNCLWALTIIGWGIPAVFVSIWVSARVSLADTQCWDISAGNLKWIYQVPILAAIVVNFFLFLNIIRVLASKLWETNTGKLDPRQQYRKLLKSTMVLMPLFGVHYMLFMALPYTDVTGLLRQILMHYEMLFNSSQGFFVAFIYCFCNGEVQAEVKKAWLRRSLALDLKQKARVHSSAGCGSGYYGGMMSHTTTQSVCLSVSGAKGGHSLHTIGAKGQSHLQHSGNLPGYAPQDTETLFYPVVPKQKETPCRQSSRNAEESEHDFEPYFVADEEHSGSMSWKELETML

[4] = target: T1, zebrafish PTH1R receptor, clone …; assay: cell-based or functional assay
[5] = target: T2, zebrafish PTH1R receptor, clone …; assay: competitive radioligand binding on intact COS-7 cells expressing the receptor, room temperature; unlabeled hPTH, radioligand not clearly stated (125I-rPTH or 125I-PTHrP)
Procedure: (§1) Peptides were synthesized by the MGH polymer core facility as described (Gardella et al., (1996)). Specific binding was calculated by subtracting radioligand binding in the presence of excess unlabeled peptide from the total binding. All points represent mean±S.E.M. of two to three replicates from two or more independent experiments.
(§2) Table 3. Binding and cAMP Signaling Properties of PTH and PTHrP Analogs on the zPTH1R and the zPTH3R Competitive binding and cAMP stimulation assays were performed at room temperature with intact COS-7 cells that expressed either the zPTH1R or the zPTH3R, as described in Materials and Methods. […] Values are the mean±SEM of at least three independent transfections. ND, not determined.

[6] = target: T3, zebrafish PTH3R receptor, transiently …; assay: as above
Procedure: as §1, §2

[7] = target: T1, zebrafish PTH1R receptor, clone …; assay: as above
Procedure: as §1, §2

[8] = target: T2, zebrafish PTH1R receptor, clone …; assay: radioligand binding on COS-7 cells expressing the receptor
Procedure: (§3) Plasmid DNAs encoding the two full length zPTH1Rs (#25 and #29) and the zPTH3R were transiently expressed in COS-7 cells. COS-7 African green monkey kidney cells (approximately 200,000 cells/well in a 24-well plate) were cultured and transfected with plasmid DNA (200 ng/well) as described (Rubin et al., (1998)). After transfection, cells were cultured for 72 hrs at 37° with daily exchanges of medium, followed by an additional 24 hrs at 33° (Gardella et al., (1997)) until they were functionally evaluated after 96 hrs.
as §1

[9] = target: T3, zebrafish PTH3R receptor, transiently …; assay: as above
Procedure: as §3, §1

[10] = target: T1, zebrafish PTH1R receptor, clone …; assay: as above
Procedure: as §3, §1

Binder | IP accumulation (total inositol phosphates, 10^-6 M ligand) [1] | cAMP EC50 [2] | cAMP Maximum [2] | cAMP EC50 [3] | cAMP Maximum [3] | cAMP EC50 [4] | cAMP Maximum [4] | IC50 [5] | IC50 [6] | IC50 [7] | binding result [8] | binding result [9] | binding result [10]
B1 | 2 fold | ~3 nM | 90.4 pmol/well | 5.98 nM | 227 pmol/well | 0.8 nM | 106 pmol/well | ~3 nM | ~100 nM | ~3 nM |  |  | 
B2 |  |  |  |  |  |  |  |  |  |  | binds | binds | binds
